Source: article PMC2518714

Target: T1, CD9 (wild type) (human (endogenous in PC3)), P21926
T1 chain: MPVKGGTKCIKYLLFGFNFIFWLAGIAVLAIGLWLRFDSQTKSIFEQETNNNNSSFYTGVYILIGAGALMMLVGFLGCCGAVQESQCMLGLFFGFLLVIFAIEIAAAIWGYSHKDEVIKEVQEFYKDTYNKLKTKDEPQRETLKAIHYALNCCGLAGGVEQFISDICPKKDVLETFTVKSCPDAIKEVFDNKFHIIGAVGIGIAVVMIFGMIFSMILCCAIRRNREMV
Test: single-molecule codiffusion
Conditions: remark: other sources report otherwise

percent of Brownian and mixed trajectories with codiffusing molecules: 15%
percent of possible pairs dynamically colocalized: 5%
B1: CD9 (wild type), P21926 1-228 (natural protein)
chain: MPVKGGTKCIKYLLFGFNFIFWLAGIAVLAIGLWLRFDSQTKSIFEQETNNNNSSFYTGVYILIGAGALMMLVGFLGCCGAVQESQCMLGLFFGFLLVIFAIEIAAAIWGYSHKDEVIKEVQEFYKDTYNKLKTKDEPQRETLKAIHYALNCCGLAGGVEQFISDICPKKDVLETFTVKSCPDAIKEVFDNKFHIIGAVGIGIAVVMIFGMIFSMILCCAIRRNREMV
modifications: here or on the partner: palmitoylated (sites not given); palmitoylated (sites not given)
